We go through seven proteins from PMC4207562, “Study of the Structure-Function-Stability Relationships in Yeast D-amino Acid Oxidase: Hydrophobization of Alpha-Helices” (Acta Naturae, 2014).

Common to all, as to conditions: 50 mM potassium phosphate pH 8.0, 30 °C, air-saturated
Substrate in series [1]: N[C@H](Cc1c[nH]c2ccccc12)C(=O)O
Description: peroxidase/ABTS coupled assay, A414. Type of series: biochemical, Trigonopsis variabilis. The text has this:
(§1) peroxidase/ABTS coupled assay, A414 on TvDAAO

Substrate in series [2]: NCCCC[C@@H](N)C(=O)O
Put plainly: peroxidase/ABTS coupled assay, A414. In kind it is biochemical, Trigonopsis variabilis.
Text: as §1

Substrate in series [3]: N[C@H](Cc1ccc(O)cc1)C(=O)O
Description: peroxidase/ABTS coupled assay, A414. Type of series: biochemical, Trigonopsis variabilis.
Text: as §1

Substrate in series [4]: NC(=O)C[C@@H](N)C(=O)O
Description: peroxidase/ABTS coupled assay, A414. Type of series: biochemical, Trigonopsis variabilis.
Text: as §1

Substrate in series [5]: CSCC[C@@H](N)C(=O)O
Description: peroxidase/ABTS coupled assay, A414. In kind it is biochemical, Trigonopsis variabilis.
Text: as §1

Substrate in series [6]: CC(C)C[C@@H](N)C(=O)O
Put plainly: purified protein.

Substrate in series [7]: N[C@H](CO)C(=O)O
Put plainly: purified protein.

Substrate in series [8]: CC(C)[C@@H](N)C(=O)O
Put plainly: purified protein.

Substrate in series [9]: N[C@H](Cc1ccccc1)C(=O)O
Put plainly: purified protein.

Substrate in series [10]: C[C@@H](N)C(=O)O
Put plainly: purified protein.

Substrate in series [11]: C[C@H](O)[C@@H](N)C(=O)O
Put plainly: purified protein.

B1: TvDAAO (Trigonopsis variabilis) (protein)
chain: MAKIVVIGAGVAGLTTALQLLRKGHEVTIVSEFTPGDLSIGYTSPWAGANWLTFYDGGKLADYDAVSYPILRELARSSPEAGIRLISQRSHVLKRDLPKLEVAMSAICQRNPWFKNTVDSFEIIEDRSRIVHDDVAYLVEFRSVCIHTGVYLNWLMSQCLSLGATVVKRRVNHIKDANLLHSSGSRPDVIVNCSGLFARFLGGVEDKKMYPIRGQVVLVRNSLPFMASFSSTPEKENEDEALYIMTRFDGTSIIGGCFQPNNWSSEPDPSLTHRILSRALDRFPELTKDGPLDIVRECVGHRPGREGGPRVELEKIPGVGFVVHNYGAAGAGYQSSYGMADEAVSYVERALTRPNL
notes: recombinant tvdaao gene in pET-33b(+) based plasmid, E. coli BL21(DE3) CodonPlus/pLysS; MonoQ purified; FAD homodimer; no tag stated
Take B1: the Km (usually the substrate concentration at which the rate is half of its maximum) was found to be 490 ± 40 µM in [1]; 29300 ± 3400 µM in series [2]; 450 ± 60 µM in series [3]; 22600 ± 1500 µM in [4]; 460 ± 30 µM in series [5]; 780 ± 20 µM in “purified protein [6]”. The Km was 36600 ± 3300 µM in the series “purified protein [7]”; 14400 ± 1200 µM in “purified protein [8]”; 370 ± 40 µM in the series “purified protein [9]”; 16700 ± 700 µM in “purified protein [10]”; 11100 ± 800 µM in the series “purified protein [11]”. Besides, the kcat (as a rule, the number of substrate molecules converted per active site and unit of time at saturation) in series [1] came to 42.4 ± 1.4 s⁻¹; in series [2], 3.54 ± 0.21 s⁻¹; in series [3], 22.5 ± 1.9 s⁻¹; in series [4] it was 62.4 ± 2 s⁻¹; in series [5], 80.5 ± 0.8 s⁻¹; in the series “purified protein [6]”, 29.1 s⁻¹. For the same protein, the kcat in “purified protein [7]” was found to be 20.5 s⁻¹; in the series “purified protein [8]”, 85.3 s⁻¹; in “purified protein [9]”, 27.2 s⁻¹; in “purified protein [10]”, 109 s⁻¹; in the series “purified protein [11]” it was 1.75 s⁻¹. Also, the kcat/Km – broadly, the turnover number divided by the Michaelis constant – in series [1] worked out at 86500 M⁻¹ s⁻¹; in series [2] it was 120 M⁻¹ s⁻¹; in series [3], 50000 M⁻¹ s⁻¹; in [4], 2800 M⁻¹ s⁻¹; in [5], 175000 M⁻¹ s⁻¹; in “purified protein [6]”, 37300 M⁻¹ s⁻¹. For the same protein, the kcat/Km in “purified protein [7]” came to 560 M⁻¹ s⁻¹; in “purified protein [8]”, 5900 M⁻¹ s⁻¹; in the series “purified protein [9]”, 73900 M⁻¹ s⁻¹; in the series “purified protein [10]”, 6500 M⁻¹ s⁻¹; in the series “purified protein [11]” it was 160 M⁻¹ s⁻¹.

B2: TvDAAO (Trigonopsis variabilis; S67A) (protein)
chain: MAKIVVIGAGVAGLTTALQLLRKGHEVTIVSEFTPGDLSIGYTSPWAGANWLTFYDGGKLADYDAVAYPILRELARSSPEAGIRLISQRSHVLKRDLPKLEVAMSAICQRNPWFKNTVDSFEIIEDRSRIVHDDVAYLVEFRSVCIHTGVYLNWLMSQCLSLGATVVKRRVNHIKDANLLHSSGSRPDVIVNCSGLFARFLGGVEDKKMYPIRGQVVLVRNSLPFMASFSSTPEKENEDEALYIMTRFDGTSIIGGCFQPNNWSSEPDPSLTHRILSRALDRFPELTKDGPLDIVRECVGHRPGREGGPRVELEKIPGVGFVVHNYGAAGAGYQSSYGMADEAVSYVERALTRPNL
notes: as for B1
Take B2: in series [5], the Km turned out to be 1350 ± 40 µM, the kcat was determined as 104 ± 3 s⁻¹ and the kcat/Km stood at 77400 M⁻¹ s⁻¹. For the same protein, in the series “purified protein [6]”, the Km was 340 ± 20 µM, the kcat stood at 31.4 s⁻¹ and the kcat/Km stood at 93100 M⁻¹ s⁻¹.

B3: TvDAAO (Trigonopsis variabilis; S335A) (protein)
chain: MAKIVVIGAGVAGLTTALQLLRKGHEVTIVSEFTPGDLSIGYTSPWAGANWLTFYDGGKLADYDAVSYPILRELARSSPEAGIRLISQRSHVLKRDLPKLEVAMSAICQRNPWFKNTVDSFEIIEDRSRIVHDDVAYLVEFRSVCIHTGVYLNWLMSQCLSLGATVVKRRVNHIKDANLLHSSGSRPDVIVNCSGLFARFLGGVEDKKMYPIRGQVVLVRNSLPFMASFSSTPEKENEDEALYIMTRFDGTSIIGGCFQPNNWSSEPDPSLTHRILSRALDRFPELTKDGPLDIVRECVGHRPGREGGPRVELEKIPGVGFVVHNYGAAGAGYQASYGMADEAVSYVERALTRPNL
notes: as for B1
As to B3, in [5], the Km was determined as 4600 ± 200 µM, the kcat amounted to 45.9 ± 1.1 s⁻¹ and the kcat/Km came to 9900 M⁻¹ s⁻¹.

B4: TvDAAO (Trigonopsis variabilis; S77A) (protein)
chain: MAKIVVIGAGVAGLTTALQLLRKGHEVTIVSEFTPGDLSIGYTSPWAGANWLTFYDGGKLADYDAVSYPILRELARASPEAGIRLISQRSHVLKRDLPKLEVAMSAICQRNPWFKNTVDSFEIIEDRSRIVHDDVAYLVEFRSVCIHTGVYLNWLMSQCLSLGATVVKRRVNHIKDANLLHSSGSRPDVIVNCSGLFARFLGGVEDKKMYPIRGQVVLVRNSLPFMASFSSTPEKENEDEALYIMTRFDGTSIIGGCFQPNNWSSEPDPSLTHRILSRALDRFPELTKDGPLDIVRECVGHRPGREGGPRVELEKIPGVGFVVHNYGAAGAGYQSSYGMADEAVSYVERALTRPNL
notes: as for B1
Take B4: in [3], the Km was determined as 6500 ± 700 µM, the kcat came to 12.4 ± 0.8 s⁻¹ and the kcat/Km worked out at 1900 M⁻¹ s⁻¹. Also, in series [4], the Km was determined as 4700 ± 700 µM, the kcat amounted to 17.2 ± 1 s⁻¹ and the kcat/Km is 3700 M⁻¹ s⁻¹.

B5: TvDAAO (Trigonopsis variabilis; S336A) (protein)
chain: MAKIVVIGAGVAGLTTALQLLRKGHEVTIVSEFTPGDLSIGYTSPWAGANWLTFYDGGKLADYDAVSYPILRELARSSPEAGIRLISQRSHVLKRDLPKLEVAMSAICQRNPWFKNTVDSFEIIEDRSRIVHDDVAYLVEFRSVCIHTGVYLNWLMSQCLSLGATVVKRRVNHIKDANLLHSSGSRPDVIVNCSGLFARFLGGVEDKKMYPIRGQVVLVRNSLPFMASFSSTPEKENEDEALYIMTRFDGTSIIGGCFQPNNWSSEPDPSLTHRILSRALDRFPELTKDGPLDIVRECVGHRPGREGGPRVELEKIPGVGFVVHNYGAAGAGYQSAYGMADEAVSYVERALTRPNL
With B5, in the series “purified protein [6]”, the Km worked out at 70 ± 10 µM, the kcat came out at 5 s⁻¹ and the kcat/Km worked out at 76400 M⁻¹ s⁻¹.

B6: TvDAAO (Trigonopsis variabilis; S105A) (protein)
chain: MAKIVVIGAGVAGLTTALQLLRKGHEVTIVSEFTPGDLSIGYTSPWAGANWLTFYDGGKLADYDAVSYPILRELARSSPEAGIRLISQRSHVLKRDLPKLEVAMAAICQRNPWFKNTVDSFEIIEDRSRIVHDDVAYLVEFRSVCIHTGVYLNWLMSQCLSLGATVVKRRVNHIKDANLLHSSGSRPDVIVNCSGLFARFLGGVEDKKMYPIRGQVVLVRNSLPFMASFSSTPEKENEDEALYIMTRFDGTSIIGGCFQPNNWSSEPDPSLTHRILSRALDRFPELTKDGPLDIVRECVGHRPGREGGPRVELEKIPGVGFVVHNYGAAGAGYQSSYGMADEAVSYVERALTRPNL
With B6, in “purified protein [6]”, the Km was 280 ± 20 µM, the kcat amounted to 30.4 s⁻¹ and the kcat/Km stood at 110000 M⁻¹ s⁻¹. In addition, in “purified protein [9]”, the Km is 260 ± 20 µM, the kcat came to 32.3 s⁻¹ and the kcat/Km was found to be 124000 M⁻¹ s⁻¹.

B7: TvDAAO (Trigonopsis variabilis; S277A) (protein)
chain: MAKIVVIGAGVAGLTTALQLLRKGHEVTIVSEFTPGDLSIGYTSPWAGANWLTFYDGGKLADYDAVSYPILRELARSSPEAGIRLISQRSHVLKRDLPKLEVAMSAICQRNPWFKNTVDSFEIIEDRSRIVHDDVAYLVEFRSVCIHTGVYLNWLMSQCLSLGATVVKRRVNHIKDANLLHSSGSRPDVIVNCSGLFARFLGGVEDKKMYPIRGQVVLVRNSLPFMASFSSTPEKENEDEALYIMTRFDGTSIIGGCFQPNNWSSEPDPSLTHRILARALDRFPELTKDGPLDIVRECVGHRPGREGGPRVELEKIPGVGFVVHNYGAAGAGYQSSYGMADEAVSYVERALTRPNL
On to B7, for which, in “purified protein [6]”, the Km stood at 150 ± 20 µM, the kcat is 12 s⁻¹ and the kcat/Km worked out at 80000 M⁻¹ s⁻¹.
